Values quoted from earlier work in article PMC5722893.

Assays:
TSLPR (Homo sapiens) = TSLPR (Homo sapiens) (UniProt Q9HC73)
[1] = target: TSLP:TSLPR complex (Homo sapiens) (UniProt Q969D9)

Chain of UniProt Q9HC73 (Q9HC73 23-231): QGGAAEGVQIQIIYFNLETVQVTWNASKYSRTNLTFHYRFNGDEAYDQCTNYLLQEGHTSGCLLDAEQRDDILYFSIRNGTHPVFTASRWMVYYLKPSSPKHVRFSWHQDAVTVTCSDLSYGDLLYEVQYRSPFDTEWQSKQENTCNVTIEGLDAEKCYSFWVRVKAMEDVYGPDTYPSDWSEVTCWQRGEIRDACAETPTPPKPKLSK

Substance	Kd (TSLPR (Homo sapiens))	Kd [1]
TSLP (from UniProt Q969D9)	32 nM	–
IL-7Ralpha (from UniProt P16871)	–	29 nM
